Literature values in publication PMC5477003.

Target: integrin αIIbβ3 (Homo sapiens) (UniProt P08514)

Kd: 0.03 µM
Substance: CD40L (from UniProt P29965)
